Laboratory results as given in patent publication US20220411492A1 (QILU PHARMACEUTICAL, published 2022).

Columns and labels:
[1] = molecular target: T1, human Claudin 18.2 (hCLDN18.2) (human, UniProt P56856-2 1-261); experiment: cell-based or functional assay
[2] = molecular target: T1, human Claudin 18.2 (hCLDN18.2); experiment: FACS, PDX-hCLDN18.2 gastric cancer tumor tissue-derived cells
Text: (§1) FACS was used to detect the binding of anti-CLDN18.2 chimeric antibodies to HEK293 cells stably transfected expressing hCLDN18.2 (HEK293-hCLDN18.2) and gastric cancer tumor tissue-derived cells naturally expressing hCLDN18.2 (PDX-hCLDN18.2).

[3] = molecular target: T1, human Claudin 18.2 (hCLDN18.2); experiment: FACS, HEK293-hCLDN18.2 cells
Text: as §1

[4] = molecular target: murine CLDN18.2 (mCLDN18.2) (murine) (UniProt P56857); experiment: FACS, HEK293-mCLDN18.2 cells
[5] = molecular target: T1, human Claudin 18.2 (hCLDN18.2); experiment: cell-based or functional assay; remark: listed apart in the source

| Binder | ADCC EC50 [1] | ADCC Maximum lysis (%) [1] | EC50 [2] | Mean maximum fluorescence intensity (Top MFI) [2] | EC50 [3] | Mean maximum fluorescence intensity (Top MFI) [3] | EC50 [4] | Mean maximum fluorescence intensity (Top MFI) [4] | CDC EC50 [5] | CDC Maximum lysis (%) [5] |
| --- | --- | --- | --- | --- | --- | --- | --- | --- | --- | --- |
| ch-32G8 (antibody, V domains shown, also called chimeric antibody of clone 32G8) VH: EVHLQQSGPVLVKPGASVKMSCKASGYTFTDYHMNWVKQSHGKSLEWIGVINPYNGGIRYNQKFKGKATLTVDKSSSTAYMELNSLTSEDSAVYYCATIYYGNSFAYWGQGTLVTVSA VL: DIVMTQSPSSLTVTAGEKVTMSCKSSQSLLNSGNQKNYLTWYQQKPGQPPKLLIYWASTRESGVPDRFTGSGSGTDFTLTISSVQAEDLAVYYCQNNYIYPFTFGGGTKLEIR | 0.019 µg/mL | 46.8% | 5.39 nM | 14800 MFI | 2.66 nM | 8640 MFI | 0.84 nM | 6870 MFI | 0.108 µg/mL | 93.8% |
| ch-229C9 (antibody, V domains shown, also called chimeric antibody of clone 229C9) VH: DVQLQESGPDLVKPSQSLSLICTVTGYSITSGYSWHWIRQFPGNKLEWMGYIHYSGGTNYNPSLKSRISFTRDTSKNQFFLQLNSVTTEDTATYYCARLERGNSFAYWGQGTLVTVSA VL: DIVMTQSPSSLTVTAGEKVTMSCKSTQSLLNSGNQKNYLTWYQQKPGQPPKLLIYWASTRESGVPDRFTGSGSGTDFTLTISSLQAEDLAVYYCQNDYFYPFTFGSGTKLEIK | 0.023 µg/mL | 29.1% | 10.7 nM | 15700 MFI | 2.46 nM | 9870 MFI | 1.19 nM | 12700 MFI | 0.165 µg/mL | 96.1% |
| ch-239E9 (antibody, V domains shown, also called chimeric antibody of clone 239E9) VH: QVQLQQSGPELVRPGVSVKISCKGSSYTFTDYTMHWVKQSHAKSLEWIGFIGVYYGNTNYNQKFKGKATMTVDKSSSTAYMELARLTSEDSAVYYCARIGRGNAMDYWGQGTSVTVSS VL: DIVMTQSPSSLTVTAGEKVTMSCKSSQSLLNSGNQKNYLTWYQQKPGQPPKLLIYWASTRESGVPDRFTGSGSGTDFTLTISSVQAEDLAVYNCQNAYSYPFTFGSGTKLEIK | 0.021 µg/mL | 36.7% | 4.55 nM | 14600 MFI | 2.31 nM | 9270 MFI | 1.24 nM | 12700 MFI | 0.139 µg/mL | 94.8% |
| ch-252F11 (antibody, V domains shown, also called chimeric antibody of clone 252F11) VH: EIQLVESGGGLVRPGGSLKLSCAASGFSFKNYVMSWVRQSPERRLEWVAEIRTGGDYTYYVDTVTGRFTISRDNAKNTLYLEMTSLRSEDTATYYCARVGYGNSLDYWGQGTTLTVSS VL: DIVMTQSPSSLTVTAGEKVTMSCKSSQSLLNSGNQKNYLTWYQQKPGQPPKLLIYWASTRESGVPDRFTGSGSGTDFTLTISSVQAEDLAVYSCQNNYFYPLTFGAGTELELK | 0.022 µg/mL | 31.1% | 15.8 nM | 16500 MFI | 2.2 nM | 8380 MFI | 0.948 nM | 8980 MFI | 0.179 µg/mL | 95.4% |
| ch-40G7 (antibody, V domains shown, also called chimeric antibody of clone 40G7) VH: QVQLQQPGTELVKPGASVKLSCKASGYTFTNYWMHWVKQRPGHGLEWIGMIHPNSYSTNYNEKFRSKATLTVDKSSSTAYMQLSSLTSEDSAVYYCTRIYYGNAMDYWGQGTSVTVSS VL: DIVMTQSPSSLTVTAGERVTMSCKSSQSLFNSGNQKNYLTWYHQKPGQPPKLLIYWAFTRESGVPDRFTGSGSGTDFTLTIRSVQAEDLAVYYCQNDYSYPFTFGSGTKLEIK | 0.018 µg/mL | 32.7% | 7.69 nM | 10100 MFI | 2.31 nM | 7470 MFI | 1.11 nM | 10000 MFI | 0.38 µg/mL | 89.1% |
| ch-37G8 (antibody, V domains shown, also called chimeric antibody of clone 37G8) VH: EVQLQQSGPVLVKPGASVKMSCKASGYTFSDYHMNWVKQSHGKSLEWVGLINPYNGGIRFNQKFKGKATLTVDKSSSTAYMELNSLTSEDSAVYYCATIYYGNSFAYWGQGTLVTVSA VL: DIVMTQSPSSLTVTAGEKVTLTCKSGQSLLNSGNQKNYLTWYQQKPGQPPKLLIYWASTRESGVPDRFTGSGSGTDFTLTISGVQAEDLAVYYCQNDYFYPYTFGGGTKLEIK | 0.022 µg/mL | 31.7% | 7 nM | 14400 MFI | 5.05 nM | 10400 MFI | 1.71 nM | 8930 MFI | 0.16 µg/mL | 92.9% |

Further binders by falling EC50 [2], results first:

| ADCC EC50 [1] | ADCC Maximum lysis (%) [1] | EC50 [2] | Mean maximum fluorescence intensity (Top MFI) [2] | EC50 [3] | Mean maximum fluorescence intensity (Top MFI) [3] | EC50 [4] | Mean maximum fluorescence intensity (Top MFI) [4] | CDC EC50 [5] | CDC Maximum lysis (%) [5] | Binder |
| --- | --- | --- | --- | --- | --- | --- | --- | --- | --- | --- |
| 0.022 µg/mL | 34.5% | 20.1 nM | 17500 MFI | 2.7 nM | 7820 MFI | 1.63 nM | 10600 MFI | 0.177 µg/mL | 94.8% | ch-39C8 (antibody, V domains shown, also called chimeric antibody of clone 39C8) VH: QVQLQQSGAGLVKPGASVKISCKASGYAFSSYWMIWVKQRPGKGLEWIGQIYPGDGDTNYNGKFKGKATLTADKSSSTAFMQLSSLTSEDSAVYFCTRIYYGNAFAYWGQGTLVTVSA VL: DIVMTQSPSSLTVTAGEKVTMSCKSSQSLLNSGNQKNYLTWYQQKPGQPPKLLIYWASTRESGVPDRFTGSGSGTDFTLTISSVQAEDLAVYYCQNDYSYPFTFGSGTKLEIK |
| 0.01 µg/mL | 36.6% | 15 nM | 17100 MFI | 2.12 nM | 9970 MFI | 0.573 nM | 7640 MFI | 0.065 µg/mL | 95% | ch-126A11 (antibody, V domains shown, also called chimeric antibody of clone 126A11) VH: QVQLKESGPGLVAPSQSLSITCTVSEFSLTTYGVSWVRQPPGKGLEWLGVIWGDGSTNYHSALISRLSISKDTSKSQVFLKLNSLQTDDTATYYCAKPGLRNAMDYWGQGTSVTVSS VL: DIVMTQSPSSLSVSAGEKVTMSCKSSQSLLNSGNQKNYLAWYQQKPGQPPKLLIYGASTRESGVPDRFTGSGSGTDFTLTISSVQAEDLAVYYCQNDLIYPLTFGAGTKLELK |
| 0.021 µg/mL | 45.6% | 12.3 nM | 16800 MFI | 2.46 nM | 8720 MFI | 0.702 nM | 6340 MFI | 0.108 µg/mL | 95.4% | ch-76D11 (antibody, V domains shown, also called chimeric antibody of clone 76D11) VH: QVQLQQSGAELMKPGASVKLSCKASGYTFTGYWIEWIKQRPGHGLEWIGEILPGSGSIKYNEKFKDKATFTADTSSNTAYMQLSSLTTEDSAIYYCARKGLRGNSFDYWGQGTTLTVSS VL: DIVMTQSPSSLTVTAGEKVTMSCKSSQSLLNSGNQKNYLTWYQQKPGQPPKRLIYWASTRESGVPDRFTGSGSGTDFTLTISSVQAEDLAVYYCQNDYYYPFTFGSGTKLEIK |
| 0.02 µg/mL | 39.1% | 7.42 nM | 15700 MFI | 2.42 nM | 10400 MFI | 0.764 nM | 7400 MFI | 0.13 µg/mL | 94.5% | ch-42D2 (antibody, V domains shown, also called chimeric antibody of clone 42D2) VH: EVQLQQSGPVLVKPGASVKMSCKASGYTFTDYQMNWVKQSHGKSLEWIGFINPYNGGIRYNQKFKGKATLTVDKSSSTAYMELNSLTSEDSAVYYCATIYFGNSFANWGQGTLVTVSA VL: DIVMTQSPSSLTVTAGEKVTMSCKPSQSLLNSGNQKNYLTWYQQKPGQPPRLLIYWASTRESGVPDRFTGSGSGTDFTLTISSVQAEDLAVYYCQNDYIYPYTFGGGTNLEIK |
| 0.011 µg/mL | 44.7% | 5.59 nM | 13600 MFI | 2.92 nM | 9480 MFI | 1.76 nM | 14800 MFI | 0.17 µg/mL | 94.3% | ch-48H1 (antibody, V domains shown, also called chimeric antibody of clone 48H1) VH: QVQLQQPGAELVKPGTSVKLSCKASGYIFTNYWTHWMKQRPGQGLEWIGMIHPNSGSSNYNEKFKSKATLTVDRSSSTVYMQLRRLTSEDSAVYYCTRIHYGNSMDYWGQGTSVTVSS VL: DIVMTQSPSSLTVTAGEKVTMSCKSSQSLFNSGNQKNYLTWYQQKPGQPPKLLIYWASTWESGVPDRFTGSGSGTDFTLTISSVQAEDLAVYYCQNAYSYPFTFGSGTKLEIK |
| 0.064 µg/mL | 48.5% | 5.35 nM | 7620 MFI | 1.51 nM | 5590 MFI | 1.13 nM | 6090 MFI | 0.206 µg/mL | 89.8% | ch-43F5 (antibody, V domains shown, also called chimeric antibody of clone 43F5) VH: QVQLQQPGAELVKPGTSVKLSCKASGYTFTSYWTHWVKQRPGQGLEWIGMIHPNSGSSNYNEKFKSKATLTVDKSSSTAYMQLRRLTSEDSAVYYCTRIHYGNAMDYWGQGTSVTVSS VL: DIVMTQSPSSLTVTAGEKVTMTCKSSQSLLNSGNQKNYLTWYQQKPGQPPKLLIYWASTRESGVPDRFTGSGSGTDFTLTISSVQAEDLAIYYCQNDYSFPFTFGSGTKLEIK |
